Measured values taken from patent US20200255836, “NUCLEIC ACID APTAMER FOR INHIBITING ACTIVITY OF GENOME-EDITING ENZYME” (NATIONAL INSTITUTE OF ADVANCED INDUSTRIAL SCIENCE AND …, published 2020).

Legend:
Cas9 (His-Cas9) [1] = biological target: T1, Cas9 (His-Cas9) (Streptococcus pyogenes, UniProt Q99ZW2 Q99ZW2:1-1368); test: SPR; 5'-biotin s21 immobilized; Cas9 without guide; 20 mM Tris pH 8.0, 150 mM NaCl, 1 mM MgCl2; settings: tags: His tag, expressed in E. coli; hairpin (stem-loop)
Procedure: In order to calculate the dissociation constant (Kd) between Cas9 protein and each nucleic acid aptamer, surface plasmon resonance analysis was conducted. The detailed experimental approach was as follows.
5′-Biotinylated s21 was prepared and was immobilized on a streptavidin sensor chip (GE Healthcare Japan Corp.). Then, different concentrations (2.5 nM, 5 nM, 10 nM, and 20 nM) of Cas9 protein were loaded in a running buffer (20 mM Tris/HCl pH 8.0, 150 mM NaCl, 1 mM MgCl₂, and 0.005% Tween-20) to obtain sensorgrams. Kd was calculated with Biacore evaluation software package (GE Healthcare Japan Corp., Ver 2.0). Tetra was used as a control to conduct a similar test.

Cas9 (His-Cas9) [2] = biological target: T1, Cas9 (His-Cas9); test: EMSA; Cas9 without guide; 250 mM NaCl, 1 mM MgCl2, tRNA; settings: tags: His tag, expressed in E. coli; hairpin, 7-base loop
Procedure: (§1) The interaction between Cas9 protein and each nucleic acid aptamer having inhibitory activity was analyzed by gel shift assay. The detailed experimental conditions are as follows.
(§2) Amounts of 2 pmol of Cas9 protein and 20 pmol of each nucleic acid aptamer (s21, s21-2, s21-mm2, tetra, and St2-1SA (aptamer against streptavidin)) were incubated at normal temperature for 30 minutes in a binding buffer (20 mM Tris/HCl pH 8.0, 250 mM NaCl, 1 mM MgCl₂, 2.5% glycerol, 0.05% Tween-20, and 0.05 mg/ml tRNA). Then, the obtained product was electrophoresed on 8% acrylamide gel, and the gel was stained with SYBR Gold (Thermo Fisher Scientific Inc.), followed by analysis with Bio-Rad ChemiDoc XRS image analysis system (Bio-Rad Laboratories, Inc.). The sequence of St2-1SA is as described below (Table 13).

Cas9 (His-Cas9) [3] = biological target: T1, Cas9 (His-Cas9); test: EMSA; no complex band; 250 mM NaCl, 1 mM MgCl2, tRNA; settings: tags: His tag, expressed in E. coli; hairpin
Procedure: as §1, §2

Cas9 (His-Cas9) [4] = biological target: T1, Cas9 (His-Cas9); test: EMSA; negative control; no complex band; settings: tags: His tag, expressed in E. coli
Procedure: as §1, §2

T1 sequence (Q99ZW2 whole entry, one chain of several): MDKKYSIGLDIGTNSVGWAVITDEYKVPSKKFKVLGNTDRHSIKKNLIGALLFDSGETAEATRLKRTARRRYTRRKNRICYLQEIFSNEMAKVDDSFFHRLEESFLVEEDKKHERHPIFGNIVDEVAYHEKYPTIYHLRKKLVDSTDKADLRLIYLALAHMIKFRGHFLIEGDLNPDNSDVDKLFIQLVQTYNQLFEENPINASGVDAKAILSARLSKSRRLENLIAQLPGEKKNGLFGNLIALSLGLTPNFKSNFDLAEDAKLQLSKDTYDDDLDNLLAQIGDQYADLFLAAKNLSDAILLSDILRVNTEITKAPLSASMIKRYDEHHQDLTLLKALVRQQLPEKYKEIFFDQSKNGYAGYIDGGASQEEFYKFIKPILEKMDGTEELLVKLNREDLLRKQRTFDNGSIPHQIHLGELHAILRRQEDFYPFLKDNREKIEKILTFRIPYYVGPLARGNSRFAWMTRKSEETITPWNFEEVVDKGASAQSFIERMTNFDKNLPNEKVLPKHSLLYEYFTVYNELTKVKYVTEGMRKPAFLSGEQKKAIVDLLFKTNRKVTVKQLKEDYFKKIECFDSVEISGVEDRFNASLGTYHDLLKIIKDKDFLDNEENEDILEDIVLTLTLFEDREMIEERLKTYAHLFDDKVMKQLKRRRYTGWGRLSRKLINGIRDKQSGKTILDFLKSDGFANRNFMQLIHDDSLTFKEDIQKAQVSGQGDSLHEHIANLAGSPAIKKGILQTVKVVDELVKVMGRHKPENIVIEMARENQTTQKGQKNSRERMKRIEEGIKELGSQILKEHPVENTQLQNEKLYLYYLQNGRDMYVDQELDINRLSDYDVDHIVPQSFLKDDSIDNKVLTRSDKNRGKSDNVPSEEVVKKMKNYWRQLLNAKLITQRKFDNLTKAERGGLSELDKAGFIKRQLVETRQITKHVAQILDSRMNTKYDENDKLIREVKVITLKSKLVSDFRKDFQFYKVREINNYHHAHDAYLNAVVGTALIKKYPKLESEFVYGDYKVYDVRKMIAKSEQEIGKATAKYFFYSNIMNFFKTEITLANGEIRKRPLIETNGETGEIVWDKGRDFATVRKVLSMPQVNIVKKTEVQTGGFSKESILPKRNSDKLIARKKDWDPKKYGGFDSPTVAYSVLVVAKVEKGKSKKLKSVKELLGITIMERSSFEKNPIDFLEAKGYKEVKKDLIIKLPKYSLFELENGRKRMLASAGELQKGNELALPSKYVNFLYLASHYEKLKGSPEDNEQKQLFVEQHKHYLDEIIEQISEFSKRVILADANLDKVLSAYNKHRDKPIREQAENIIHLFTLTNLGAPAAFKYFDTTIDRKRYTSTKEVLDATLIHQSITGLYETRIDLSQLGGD

GAGGCTCTCACATCGCGCCTTTCCCCAGCTTTCGGTGTGAGAGCCTC (ssDNA) [s21]
Kd (Cas9 (His-Cas9) [1]): 0.57 nM

GAGGCTCTCACATCGCGCCTTTCGGTGTGAGAGCCTC (ssDNA) [s21-2]
binding result (Cas9 (His-Cas9) [2]): binds

GAGGCTCTCACAGCGCGCCTTTCGTTGTGAGAGCCTC (ssDNA) [s21-2mm2]
binding result (Cas9 (His-Cas9) [3]): no binding

ATTGACCGCTGTGTGACGCAACACTCAAT (ssDNA) [St2-1SA (streptavidin aptamer)]
binding result (Cas9 (His-Cas9) [4]): no binding
